Experimental findings from patent publication US20040208880A1 (University of Texas, published 2004) are described below.

Substitutions are numbered along the chain they refer to. Numbers in names are those of the source.

The target of assay [1] is T1, dynein light chain-1/protein inhibitor of nitric oxide synthase (DLC1/PIN), amino acids 1-89 (human, UniProt P63167 1-89).
T1 construct: Used both as in vitro translated 35S-labeled protein (aa 1-89) and as the endogenous protein of human cell lines (MCF-7, Ishikawa)
Put plainly: GST pull-down with in vitro translated DLC1/PIN.

The target of assay [2] is T1, dynein light chain-1/protein inhibitor …. Put plainly: immunoprecipitation with HA antibody from Tet on-HA-Pak1-T423E MCF-7 cells, immunoblot.
Assay [3] has as its target T2, estrogen receptor alpha (ER), full-length (UniProt P03372 1-595).
T2 construct: Used as in vitro translated 35S-labeled full-length ER and as the endogenous ER of human cell lines (Ishikawa, MCF-7 derivatives); also called ERα; ERá
T2 sequence (looked up): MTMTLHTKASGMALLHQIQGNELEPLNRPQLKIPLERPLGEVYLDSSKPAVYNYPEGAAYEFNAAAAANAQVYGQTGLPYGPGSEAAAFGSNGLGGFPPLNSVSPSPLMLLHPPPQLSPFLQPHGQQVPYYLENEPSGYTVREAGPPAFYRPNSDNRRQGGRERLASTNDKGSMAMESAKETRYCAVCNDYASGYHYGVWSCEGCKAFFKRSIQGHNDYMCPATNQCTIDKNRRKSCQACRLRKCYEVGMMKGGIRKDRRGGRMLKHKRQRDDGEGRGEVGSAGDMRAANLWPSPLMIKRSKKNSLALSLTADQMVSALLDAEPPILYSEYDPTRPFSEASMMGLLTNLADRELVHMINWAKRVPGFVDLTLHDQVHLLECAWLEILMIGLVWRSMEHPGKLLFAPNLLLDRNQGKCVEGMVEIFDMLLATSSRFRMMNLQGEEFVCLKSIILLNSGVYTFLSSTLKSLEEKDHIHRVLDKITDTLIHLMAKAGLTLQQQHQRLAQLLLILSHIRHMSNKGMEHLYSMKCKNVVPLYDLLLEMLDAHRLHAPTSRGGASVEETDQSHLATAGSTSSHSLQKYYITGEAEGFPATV
Put plainly: immunoprecipitation with anti-Pak1 Ab, immunoblot with ERα Ab.

Assay [4] has as its target T2, estrogen receptor alpha (ER), …. Put plainly: GST pull-down with in vitro translated 35S-ER.

B1: GST-Pak1 auto inhibitory domain (other)
chain: RFYRSILPGDKTNKKKEKERPEISLPSDFEHTIHVGFDAVTGEFTGMPEQWARLLQTSNITKSEQKKNPQAVLDVLEFYN
notes: not shown: glutathione-S-transferase (GST) fusion partner
In the case of B1, the binding result in assay [1] is reported as “no binding”.

B2: HA-tagged T423E Pak1 (catalytically active Pak1) (enzyme)
chain: MSNNGLDIQDKPPAPPMRNTSTMIGVGSKDAGTLNHGSKPLPPNPEEKKKKDRFYRSILPGDKTNKKKEKERPEISLPSDFEHTIHVGFDAVTGEFTGMPEQWARLLQTSNITKSEQKKNPQAVLDVLEFYNSKKTSNSQKYMSFTDKSAEDYNSSNALNVKAVSETPAVPPVSEDEDDDDDDATPPPVIAPRPEHTKSVYTRSVIEPLPVTPTRDVATSPISPTENNTTPPDALTRNTEKQKKKPKMSDEEILEKLRSIVSVGDPKKKYTRFEKIGQGASGTVYTAMDVATGQEVAIKQMNLQQQPKKELIINEILVMRENKNPNIVNYLDSYLVGDELWVVMEYLAGGSLTDVVTETCMDEGQIAAVCRECLQALEFLHSNQVIHRDIKSDNILLGMDGSVKLTDFGFCAQITPEQSKRSEMVGTPYWMAPEVVTRKAYGPKVDIWSLGIMAIEMIEGEPPYLNENPLRALYLIATNGTPELQNPEKLSAIFRDFLNRCLDMDVEKRGSAKELLQHQFLKIAKPLSSLTPLIAAAKEATKNNH
notes: Expressed in MCF-7 cells under a Tet-on promoter; also called HA-Pak1-T423E; not shown: HA tag
Regarding B2, the binding result in assay [2] is “binds”.

B3: p21-activated protein kinase 1 (Pak1), full-length, amino acids 1-545 (enzyme)
chain: B2 chain with E423T
notes: Used both as in vitro translated 35S-labeled full-length protein and as the endogenous protein of human cell lines
With B3, in assay [3], the binding result is recorded as “binds”.

B4: GST-Pak1 N-terminal domain (amino acids 1-132) (other)
chain: MSNNGLDIQDKPPAPPMRNTSTMIGVGSKDAGTLNHGSKPLPPNPEEKKKKDRFYRSILPGDKTNKKKEKERPEISLPSDFEHTIHVGFDAVTGEFTGMPEQWARLLQTSNITKSEQKKNPQAVLDVLEFYN
notes: as for B1
For the molecule B4, in assay [1], the binding result is listed as “no binding”.

B5: GST-Pak1 Cdc42/Rac-interacting (CRIB) domain (other)
chain: ISLPSDFEHTIHVGFDAVTGEFTGMPEQWARLLQTSNITKSEQKKNPQAVLDVLEFYNSKKTSNSQKYMSFTDKS
notes: as for B1
B5: in assay [1], the binding result is listed as “no binding”.

B6: GST-DLC1 deletion construct lacking the C-terminal amino acids 67-89 (other)
chain: MCDRKAVIKNADMSEEMQQDSVECATQALEKYNIEKDIAAHIKKEFDKKYNPTWHCIVGRNFGSYV
notes: not shown: GST fusion partner at the N end and any linker to it
On to B6, for which the binding result in assay [4] was “no binding”.
